Assay results as given in the supplement of paper PMC9170038.

System: MS2 coat protein
Test: apparent KD of MS2 coat protein; designed switch direction (-1 OFF switch, 1 ON switch): -1; higher = weaker reporter binding
How it was run: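 Stalled E. coli RNA polymerase transcribed designed RNA switches on Illumina chips, which were then titrated with SNAP-549-labelled MS2 coat protein, doubling from 0.7 or 1.5 nM to 3 µM. Steps lasted from 0.8–1.5 h at the lowest concentration to 10–20 min at the highest. The apparent KD is each design's median over clusters of curve-fitted normalised fluorescence.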

[1] = input ligand: microRNA oligo, concentration not stated
[2] = Eterna round: R95, input ligand: microRNA oligo, concentration not stated
[3] = Eterna round: R95, input ligand: FMN 200 uM
[4] = Eterna round: R95, input ligand: none

AAAUAUCAUGUAGGAUAUGGAAGGCGAACCUAUCCAGAAGGACAUGAGGAUCACCCAUGUGCUGCGUUGUCCGUAGACAGCGCU [Ex NG1 #2] (Eterna round: R96, puzzle: Exclusion NG 1)
apparent KD of MS2 coat protein (input ligand: FMN 200 uM): 88.2 nM | apparent KD of MS2 coat protein [1]: 21.1 nM | apparent KD of MS2 coat protein (input ligand: none): 31.4 nM

GGUUAUUGCAAGGAUAUGCUUAUUUGAGAAAUUGCAGAAGGUGCAACAUGAGGAUCACCCAUGUUGGAUGGGUU [JR_E6_Sub016] (puzzle: Exclusion 6)
apparent KD of MS2 coat protein [2]: 60.7 nM

GAUAGAGAGCAGGAUAUCUUGGGUAAGUAUCGUAGAGAAGGGCUCACAUGAGGAUCACCCAUGUGGUCCAAGAU [JL Dibiri mod 01] (puzzle: Exclusion 6)
apparent KD of MS2 coat protein [2]: 14.4 nM

AUCCGUUGUAUAGGAUAUAAGUGUAAACUGUACUUAGAAGGAUACAUGAGGAUCACCCAUGUUGUAAUAGAUGAGCAUAGAGCA [Eternabot solution 6] (Eterna round: R96, puzzle: Exclusion NG 1)
apparent KD of MS2 coat protein (input ligand: FMN 200 uM): 52.2 nM | apparent KD of MS2 coat protein [1]: 24.1 nM | apparent KD of MS2 coat protein (input ligand: none): 30.2 nM

GGCCUGUGAGGAUAUUAGUAGUAGAUGAAAUAAACUAUUACUGAGAAGGCACAUGAGGAUCACCCAUGUUGGCC [Mat - Exclusion 4 - Eli Mod - D36] (Eterna round: R97, puzzle: Exclusion 4)
apparent KD of MS2 coat protein (input ligand: FMN 200 uM): 16.6 nM | apparent KD of MS2 coat protein (input ligand: none): 16.1 nM

AUUGUGUGAGGAUAUUAAUAGUAAAUGAAUAGAAUUAUGAUUGAGAAGGCACAUGAGGAUCACCCAUGUUCCUU [JR_Ex4_Sub081] (Eterna round: R97, puzzle: Exclusion 4)
apparent KD of MS2 coat protein (input ligand: FMN 200 uM): 17.8 nM | apparent KD of MS2 coat protein (input ligand: none): 19.6 nM

AUAAAAGCAGGAUAUGCGCGGUGUGAUGCCGCAUGCUCGUCACAUGAGGAUCACCCAUGUAGAAGGGCUAAAUG [Diramadidi] (Eterna round: R97, puzzle: Exclusion 2)
apparent KD of MS2 coat protein (input ligand: FMN 200 uM): 19.3 nM | apparent KD of MS2 coat protein (input ligand: none): 15.6 nM

AAACCUGAAGUCAGGAUAUGAAGUAUCACUGUACUUCAGAAGGGACUUGAGGAUCACCCAAGUAGCCGUGAGGC [jl-bmx4.4.67 ViennaUCT mod] (Eterna round: R97, puzzle: Brourd's mod of Exclusion 4)
apparent KD of MS2 coat protein (input ligand: FMN 200 uM): 116 nM | apparent KD of MS2 coat protein (input ligand: none): 28.8 nM

AGAAGACAUGAGGAUCACCCAUGUAAGGAUAUCGAAGGUAUGAGAGGAAAGAGGUUAACGAGAAGGUACAGGUG [JR_Exclu1_Sub098] (puzzle: Exclusion 1)
apparent KD of MS2 coat protein [3]: 85.9 nM | apparent KD of MS2 coat protein [2]: 74.1 nM | apparent KD of MS2 coat protein [4]: 130 nM

CCCUCACAUGAGGAUCACCCAUGUCAGGAUAUCCAAGGCGAUCACCAAAAUAAAGCAAGGAGAAGGGACUUGGC [Enona] (Eterna round: R97, puzzle: Exclusion 1)
apparent KD of MS2 coat protein (input ligand: FMN 200 uM): 71.5 nM | apparent KD of MS2 coat protein (input ligand: none): 41.4 nM

GAUUAACAUGAGGAUCACCCAUGUGAGGAUAUGGAAUGGCUCAUUGUUUGAUUCCCGUCUAGAAGGCACAUCUU [1986#7] (Eterna round: R97, puzzle: Exclusion 1)
apparent KD of MS2 coat protein (input ligand: FMN 200 uM): 150 nM | apparent KD of MS2 coat protein (input ligand: none): 116 nM

GGGAUGUCAGGAUAUCCAAAAGUCUGCCAAUACAGCAGACAGGAGAAGGGACAUGAGGAUCACCCAUGUAAAGA [Atonis] (puzzle: Exclusion 4)
apparent KD of MS2 coat protein [2]: 33.5 nM

ACAUGUAUUGCAGGAUAUGGGACACAUGAGGAUCACCCAUGUGACUACAUGUCAUACCACGCGUCUCAGAAGGGUAUGUACAUG [Ex NG2 #39] (Eterna round: R96, puzzle: Exclusion NG 2)
apparent KD of MS2 coat protein (input ligand: FMN 200 uM): 27.7 nM | apparent KD of MS2 coat protein [1]: 14 nM | apparent KD of MS2 coat protein (input ligand: none): 21.5 nM

AGAUGGCGAGGAUAUACAUGAGGAUCACCCAUGUGAGAGAAUAAAGUGAGGAAGAAAAGUAGAAGGCGCUGUCA [Mat - Exclusion 3 - Mod of Salish D10] (puzzle: Exclusion 3)
apparent KD of MS2 coat protein [2]: 43.3 nM

GUGUAGUCAGGAUAUACAUAGGAAGAGAAGAGAAGAUAAGCACAUGAGGAUCACCCAUGUAGAAGGGACAGUGU [Excluse me!! 3 - Jieux - Exclusion 2] (puzzle: Exclusion 2)
apparent KD of MS2 coat protein [2]: 57.4 nM

AAGAGGCGGACAGGAUAUGGGAAAUUGUAAAGACCAGAAGGGUCGGCGAAAAUACAUGAGGAUCACCCAUGUGAAUCAUGACCA [AK ExNG1-7] (Eterna round: R96, puzzle: Exclusion NG 1)
apparent KD of MS2 coat protein (input ligand: FMN 200 uM): 89.1 nM | apparent KD of MS2 coat protein [1]: 31.6 nM | apparent KD of MS2 coat protein (input ligand: none): 42.5 nM

UAUAUAUAGUAAGGAUAUGUAUUAAGUUUAUAAACAGAAGGUACUGACAUGAGGAUCACCCAUGUUUUAGUGUGGGCAUGUAGA [JMF's solution 76] (Eterna round: R96, puzzle: Exclusion NG 1)
apparent KD of MS2 coat protein (input ligand: FMN 200 uM): 122 nM | apparent KD of MS2 coat protein [1]: 52.6 nM | apparent KD of MS2 coat protein (input ligand: none): 78.6 nM

GAAUAGAGAGGAUAUGCGAAGUAGGUAGUACGAUAUAUCUGACAUGAGGAUCACCCAUGUAGAAGGCUCAGAUC [EX2 #5] (Eterna round: R97, puzzle: Exclusion 2)
apparent KD of MS2 coat protein (input ligand: FMN 200 uM): 34.4 nM | apparent KD of MS2 coat protein (input ligand: none): 40.3 nM

UCACGGGACUGAGGAUAUACAUCAACAAUGGUUGUAGAAGGCAGAAGGUUGAAUCAUAUACUAAACAUGAGGAUCACCCAUGUU [JR_ExcNG1_Sub031] (Eterna round: R96, puzzle: Exclusion NG 1)
apparent KD of MS2 coat protein (input ligand: FMN 200 uM): 16.4 nM | apparent KD of MS2 coat protein [1]: 16.6 nM | apparent KD of MS2 coat protein (input ligand: none): 24.1 nM

AAAUAAUAGAUAAAAUAAAACAUGAGGAUCACCCAUGUGGGAUGAUGAGGGUGAAACAAGCUUUUUGCUCGUCUUAU (puzzle: Sensor v3, turn-off variant 1)
apparent KD of MS2 coat protein [3]: 386 nM | apparent KD of MS2 coat protein [2]: 919 nM | apparent KD of MS2 coat protein [4]: 439 nM

CAUUGUUAUCGAGGAUAUCGUAUUGAGAUACUACGAGAAGGCGGACUAAACAUGAGGAUCACCCAUGUGAGACGGAUGCUUGGG [Ex NG1 #33] (Eterna round: R96, puzzle: Exclusion NG 1)
apparent KD of MS2 coat protein (input ligand: FMN 200 uM): 59 nM | apparent KD of MS2 coat protein [1]: 21 nM | apparent KD of MS2 coat protein (input ligand: none): 34.3 nM

GUAUAACAUGUAGGAUAUGCAUGGCGAAGCUAUGCAGAAGGACAUGAGGAUCACCCAUGUAAUAGCGUCUGCGUACAGAUGCAA [Mat - Exclusion NG 1 - Mod of JL - D91] (Eterna round: R96, puzzle: Exclusion NG 1)
apparent KD of MS2 coat protein (input ligand: FMN 200 uM): 186 nM | apparent KD of MS2 coat protein [1]: 29.4 nM | apparent KD of MS2 coat protein (input ligand: none): 38.7 nM

AGAGAAUACUCAGGAUAUCGGAAUAGAAAGAGACGAGAAGGGAGACAUGAGGAUCACCCAUGUGAAGUCUUGAGGCUGCAUGGA [Prohibition 26 - Jieux - Exclusion NG 1] (Eterna round: R96, puzzle: Exclusion NG 1)
apparent KD of MS2 coat protein (input ligand: FMN 200 uM): 197 nM | apparent KD of MS2 coat protein [1]: 122 nM | apparent KD of MS2 coat protein (input ligand: none): 165 nM

AACAGUCUAGAGGAUAUGCUGGAUUAAUAUCUGGCAGAAGGCUGGACAUGAGGAUCACCCAUGUAAAUACUACC [Omei Ex6 A1] (Eterna round: R97, puzzle: Exclusion 6)
apparent KD of MS2 coat protein (input ligand: FMN 200 uM): 137 nM | apparent KD of MS2 coat protein (input ligand: none): 44.3 nM

CCAUGUAGAGGAUAUCUUAAGCUAGACAUGAGGAUCACCCAUGUGACUAUUCCUAUGAGCGGAGAAGGCUGAACCA [Eternabot (L2) Solution 64] (Eterna round: R97, puzzle: Exclusion 5)
apparent KD of MS2 coat protein (input ligand: FMN 200 uM): 29.7 nM | apparent KD of MS2 coat protein (input ligand: none): 29.6 nM

UUAGAUUAUGAAGGAUAUGGAUCUUAUUAUUAACCAGAAGGUCAACUCAACAUGAGGAUCACCCAUGUAUAAAGGGUAUUAGUU (Eterna round: R96, puzzle: Exclusion NG 1)
apparent KD of MS2 coat protein [1]: 109 nM

UUAAACGGAGGAUAUACAUUUUUUUUAUUAUCCUCAUUAAAACAUGAGGAUCACCCAUGUAGAAGGCCGAAAUU [Mat - Exclusion 2 - Mod of Hog - D86] (puzzle: Exclusion 2)
apparent KD of MS2 coat protein [2]: 91.5 nM

GAUUAUGCGAGCUUUAGGGACAUGAGGAUCACCCAUGUUCGUCUUAUUGGUCUGGAUGCACUAACAUACCUAAAUCU [JMF 28] (puzzle: Sensor v3, turn-off variant 1)
apparent KD of MS2 coat protein [3]: 22.4 nM | apparent KD of MS2 coat protein [2]: 30.4 nM | apparent KD of MS2 coat protein [4]: 24 nM

UAUGAGUCAGGAUAUUAGUAGUGUGUGGAUACAUAUAUUGCUGAGAAGGGACAUGAGGAUCACCCAUGUAUAAG [JR_Ex4_Sub056] (Eterna round: R97, puzzle: Exclusion 4)
apparent KD of MS2 coat protein (input ligand: FMN 200 uM): 65.3 nM | apparent KD of MS2 coat protein (input ligand: none): 26.1 nM

CAUAGUAAUUAGGAUAUCUGCCGGCUGAGCCGAGGAGAAGGGAUUACAUGAGGAUCACCCAUGUGGUCCUAGAA [Lebireti] (puzzle: Exclusion 6)
apparent KD of MS2 coat protein [3]: 31.3 nM | apparent KD of MS2 coat protein [2]: 20.1 nM | apparent KD of MS2 coat protein [4]: 19.9 nM

AACAAGCUUUAAAGAUCCCACAUGAGGAUCACCCAUGUGCUCGUCUUGUAACGUACUGUGACGAAAGUCACGGUACG [JL TOV1 3.28] (Eterna round: R97, puzzle: Sensor, turn-off variant 1)
apparent KD of MS2 coat protein (input ligand: FMN 200 uM): 24.6 nM | apparent KD of MS2 coat protein (input ligand: none): 23.9 nM

GUAGAGUAAGGAUAUGCAGAAUAGGAUAGAAUGGAUAGAAUGCAGAAGGUACAUGAGGAUCACCCAUGUAAUGU [Excluse me!!!! 1 - Jieux - Exclusion 4] (puzzle: Exclusion 4)
apparent KD of MS2 coat protein [2]: 19.3 nM

UAGCGACCAUACAUGAGGAUCACCCAUGUGAAUGCCCACCGCGAGGAUAUCGAGUCCACUCGGGCCGAGAAGGCGCGACCUCAA [Eternabot solution 43] (Eterna round: R96, puzzle: Exclusion NG 3)
apparent KD of MS2 coat protein (input ligand: FMN 200 uM): 34.8 nM | apparent KD of MS2 coat protein [1]: 16.1 nM | apparent KD of MS2 coat protein (input ligand: none): 35.5 nM

UGUUGUUACGCAGGAUAUUGUCAACAGGCAAUAGGAUAUCCGAAAGGAGAAGGAUCGCCAACAGGCGAGAAGGGCGGGUUAACA [pwkr exNG2 2xF7 2xFMN.1] (Eterna round: R96, puzzle: Exclusion NG 2)
apparent KD of MS2 coat protein (input ligand: FMN 200 uM): 133 nM | apparent KD of MS2 coat protein [1]: 1580 nM | apparent KD of MS2 coat protein (input ligand: none): 2630 nM
